Results reported in the supplement of paper PMC9112550, “Optimization of the antimicrobial peptide Bac7 by deep mutational scanning” (BMC Biology, 2022).

System: Escherichia coli TOP10
Assay: shrunken log2 fold change of peptide-encoding DNA abundance (4.5 h post-induction vs induction); higher = less antimicrobial activity (less host growth inhibition)
Details: time post-induction: 4.5 h; library: site-saturation at positions 5, 18, 19, 20
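Further: peptides expressed intracellularly from a pBAD plasmid library in pooled LB shake-flask culture, induced with 0.3% L-arabinose, DNA abundance read by NGS, three biological replicates, DESeq2 with apeglm shrinkage.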

Sequence | shrunken log2 fold change
RRIRYRPPRLPRPRPRPKDAPRP | -0.0259
RRIRRRPPRLPRPRPRPPRGPRP | 0.911
RRIRDRPPRLPRPRPRPVYEPRP | -0.105
RRIRNRPPRLPRPRPRPTPHPRP | 0.284
RRIRKRPPRLPRPRPRPVPSPRP | -0.156
RRIRDRPPRLPRPRPRPDFPPRP | 0.0974
RRIRARPPRLPRPRPRPSCCPRP | 0.207
RRIRYRPPRLPRPRPRPRLGPRP | 0.0954
RRIRHRPPRLPRPRPRPYIMPRP | -0.431
RRIRRRPPRLPRPRPRPYTDPRP | -0.0165
RRIRWRPPRLPRPRPRPFHMPRP | -0.138
RRIRERPPRLPRPRPRPHRVPRP | 0.0121
RRIRNRPPRLPRPRPRPTYFPRP | -0.147
RRIRKRPPRLPRPRPRPASRPRP | 0.519
RRIRWRPPRLPRPRPRPMREPRP | 1.09
RRIRWRPPRLPRPRPRPKISPRP | 0.177
RRIRVRPPRLPRPRPRPLACPRP | 0.214
RRIRQRPPRLPRPRPRPKPFPRP | -0.101
RRIRQRPPRLPRPRPRPVDMPRP | -0.108
RRIRMRPPRLPRPRPRPRYDPRP | 0.185
RRIRHRPPRLPRPRPRPNYLPRP | -0.114
RRIRMRPPRLPRPRPRPAIKPRP | -0.183
RRIRWRPPRLPRPRPRPYVIPRP | -0.0496
RRIRFRPPRLPRPRPRPEAVPRP | 0.323
RRIRVRPPRLPRPRPRPSTSPRP | -0.0898

Sequence | shrunken log2 fold change
RRIRARPPRLPRPRPRPGGWPRP | 1.26
RRIRLRPPRLPRPRPRPSNDPRP | 2.11
RRIRPRPPRLPRPRPRPQCGPRP | -0.0915
RRIRKRPPRLPRPRPRPHAPPRP | 0.485
RRIRKRPPRLPRPRPRPPERPRP | 2.02
RRIRARPPRLPRPRPRPVVHPRP | 0.297
RRIRKRPPRLPRPRPRPQMFPRP | -0.00577
RRIRRRPPRLPRPRPRPNRAPRP | 3.1
RRIRFRPPRLPRPRPRPPNYPRP | -0.023
RRIRKRPPRLPRPRPRPNDQPRP | -0.101
RRIRQRPPRLPRPRPRPFRKPRP | -0.101
RRIRCRPPRLPRPRPRPIRHPRP | -0.146
RRIRWRPPRLPRPRPRPSGTPRP | 0.0142
RRIRDRPPRLPRPRPRPSMKPRP | -0.198
RRIRLRPPRLPRPRPRPMVRPRP | 0.0341
RRIRRRPPRLPRPRPRPEAIPRP | 0.445
RRIRSRPPRLPRPRPRPAMDPRP | 0.0404
RRIRARPPRLPRPRPRPMYQPRP | -0.21
RRIRPRPPRLPRPRPRPSSGPRP | -0.494
RRIRERPPRLPRPRPRPSGLPRP | -0.195
RRIRFRPPRLPRPRPRPCFTPRP | -0.237
RRIRGRPPRLPRPRPRPVNTPRP | 0.0713
RRIRKRPPRLPRPRPRPESKPRP | 0.727
RRIRHRPPRLPRPRPRPLYEPRP | -0.211
RRIRNRPPRLPRPRPRPTYQPRP | -0.0398

Sequence | shrunken log2 fold change
RRIRTRPPRLPRPRPRPHLMPRP | -0.139
RRIRKRPPRLPRPRPRPEGMPRP | 0.194
RRIRCRPPRLPRPRPRPLSWPRP | 0.513
RRIRHRPPRLPRPRPRPYVWPRP | 0.0405
RRIRYRPPRLPRPRPRPRYRPRP | -0.0551
RRIRQRPPRLPRPRPRPFQMPRP | -0.214
RRIRPRPPRLPRPRPRPTNWPRP | 0.214
RRIRRRPPRLPRPRPRPNIRPRP | -0.144
RRIRMRPPRLPRPRPRPITKPRP | 0.0745
RRIRERPPRLPRPRPRPQISPRP | -0.0116
RRIRPRPPRLPRPRPRPGDHPRP | -0.013
RRIRCRPPRLPRPRPRPLFRPRP | -0.283
RRIRSRPPRLPRPRPRPKAGPRP | 0.19
RRIRTRPPRLPRPRPRPVKDPRP | -0.0913
RRIRHRPPRLPRPRPRPQHDPRP | -0.281
RRIRQRPPRLPRPRPRPLYIPRP | -0.659
RRIRSRPPRLPRPRPRPRMHPRP | 0.173
RRIRSRPPRLPRPRPRPVWDPRP | -0.143
RRIRVRPPRLPRPRPRPHNWPRP | -0.0818
RRIRERPPRLPRPRPRPFIFPRP | -0.476
RRIRNRPPRLPRPRPRPIQMPRP | -0.0365
RRIRTRPPRLPRPRPRPFGKPRP | -0.00963
RRIRMRPPRLPRPRPRPQISPRP | -0.28
RRIRYRPPRLPRPRPRPGLVPRP | -0.217
RRIRVRPPRLPRPRPRPTCLPRP | 0.332

Sequence | shrunken log2 fold change
RRIRARPPRLPRPRPRPEWCPRP | 0.72
RRIRQRPPRLPRPRPRPSEQPRP | 0.155
RRIRNRPPRLPRPRPRPMDAPRP | 0.101
RRIRQRPPRLPRPRPRPDEGPRP | -0.106
RRIRLRPPRLPRPRPRPKLIPRP | -0.219
RRIRQRPPRLPRPRPRPNKLPRP | -0.0898
RRIRRRPPRLPRPRPRPDCAPRP | 0.345
RRIRARPPRLPRPRPRPWYQPRP | -0.287
RRIRYRPPRLPRPRPRPAWNPRP | -0.374
RRIRKRPPRLPRPRPRPEAEPRP | 3.31
RRIRHRPPRLPRPRPRPHIFPRP | -0.308
RRIRWRPPRLPRPRPRPPYQPRP | -0.172
RRIRVRPPRLPRPRPRPQTMPRP | -0.689
RRIRIRPPRLPRPRPRPAASPRP | 0.241
RRIRFRPPRLPRPRPRPHDHPRP | -0.508
RRIRFRPPRLPRPRPRPYLGPRP | -0.11
RRIRIRPPRLPRPRPRPFHTPRP | -0.235
RRIRWRPPRLPRPRPRPAHYPRP | -0.145
RRIRRRPPRLPRPRPRPQPYPRP | -0.142
RRIRCRPPRLPRPRPRPYKLPRP | -0.898
RRIRSRPPRLPRPRPRPGQLPRP | -0.17
RRIRPRPPRLPRPRPRPAIGPRP | -0.0136
RRIRWRPPRLPRPRPRPSNFPRP | -0.391
RRIRERPPRLPRPRPRPVGFPRP | 0.0681
RRIRTRPPRLPRPRPRPFGLPRP | 0.0236

Sequence | shrunken log2 fold change
RRIRIRPPRLPRPRPRPTFAPRP | -0.176
RRIRNRPPRLPRPRPRPENKPRP | -0.0669
RRIRLRPPRLPRPRPRPNASPRP | 0.0769
RRIRYRPPRLPRPRPRPYYCPRP | 0.00489
RRIRHRPPRLPRPRPRPLMNPRP | -0.642
RRIRGRPPRLPRPRPRPYSDPRP | -0.11
RRIRARPPRLPRPRPRPDDNPRP | 0.248
RRIRPRPPRLPRPRPRPSLPPRP | -0.187
RRIRCRPPRLPRPRPRPDDAPRP | -0.0228
RRIRTRPPRLPRPRPRPHLAPRP | 0.159
RRIRPRPPRLPRPRPRPNHCPRP | -1.08
RRIRNRPPRLPRPRPRPTSWPRP | -0.228
RRIRTRPPRLPRPRPRPRHMPRP | -0.115
RRIRARPPRLPRPRPRPNPHPRP | 0.0863
RRIRNRPPRLPRPRPRPPEVPRP | 0.0233
RRIRWRPPRLPRPRPRPVCSPRP | 0.0102
RRIRMRPPRLPRPRPRPPVQPRP | 0.378
RRIRDRPPRLPRPRPRPKPMPRP | 0.135
RRIRIRPPRLPRPRPRPTMIPRP | -0.224
RRIRNRPPRLPRPRPRPFDNPRP | -0.465
RRIRRRPPRLPRPRPRPVYEPRP | 0.15
RRIRCRPPRLPRPRPRPEDVPRP | -0.0129
RRIRWRPPRLPRPRPRPMGAPRP | 0.501
RRIRLRPPRLPRPRPRPYEVPRP | -0.0159
RRIRPRPPRLPRPRPRPHRQPRP | -0.149
